Source: paper PMC3949579

Tests used:
[1] = biological target: M2139Ig (full recombinant mouse IgG2b antibody with the M2139 sequence) (mouse); experiment: SPR
[2] = biological target: DBAIg (full recombinant mouse IgG2b antibody encoding the DBA/1J Ighv1-4 germline sequence) (mouse (DBA/1J) | mouse); experiment: SPR

Kd [1]: 38.8 nM
koff [1]: 0.00268 s⁻¹
kon [1]: 68900 M⁻¹ s⁻¹
Kd [2]: 274 nM
koff [2]: 0.00446 s⁻¹
kon [2]: 16300 M⁻¹ s⁻¹
Substance: triple-helical J1 peptide (synthetic peptide containing the J1 epitope of type II collagen)
